Biological target: T1, Snu13 (Saccharomyces cerevisiae) (UniProt P39990)
T1 sequence: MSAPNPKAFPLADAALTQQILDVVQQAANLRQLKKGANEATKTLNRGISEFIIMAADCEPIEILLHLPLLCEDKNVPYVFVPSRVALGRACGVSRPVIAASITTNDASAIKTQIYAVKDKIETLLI
Assay: EMSA
Settings: EMSA: annealed in 10 mM Tris-HCl, 100 mM NaCl, 1 mM EDTA, pH 7.5; 4 C, 10% native PAGE; 10 pmol Cy5-RNA (~2 uM) or 0.5 nmol unlabeled RNA. RNP: 20 mM Na …

Question: With snR41-kl1 as the substance, how does the Kd read?
Answer: The Kd was over 10 µM.
